For data set [1], the target named is EPHB1 (UniProt P54762). The data set can be described thus: phosphorylation enrichment, bacterial display (enrichment ratio); higher = better substrate or ligand; peptides without Tyr show the background.
For data set [2], the target named is Jak2 (UniProt O60674). The description is as above.
Data set [3] has as its target Fes (UniProt P07332). Described as above.
Data set [4] addresses FGFR3 (UniProt P22607). The data set is described as above.
For data set [5], the target named is EPHB2 (UniProt P29323). The description is as above.
The target in data set [6] is FGFR1 (UniProt P11362). The description is as above.
Data set [7] addresses Fyn (UniProt P06241). The data set is described as above.
Data set [8] has as its target Hck (UniProt P08631). Described as above.
Data set [9] relates to c-Abl (mouse). The data set is described as above.
Data set [10] addresses MERTK (UniProt Q12866). Described as above.
For data set [11], the system named is c-Src. Described as above.
In data set [12] the test system is AncSZ. The description is as above.
Data set [13] relates to Fer (mouse). The data set is described as above.
In data set [14] the target is SHP2-C SH2. Description: SH2 binding enrichment of the phosphorylated peptide, bacterial display (enrichment ratio); higher = better substrate or ligand; peptides without Tyr show the background.
Data set [15] concerns the target Grb2 SH2 (UniProt P62993). Described as above.
In data set [16] the target is c-Src SH2. The description is as above.
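Throughout, for SH2 binding enrichment of the phosphorylated peptide, bacterial display: peptide library displayed on the E. coli surface as eCPX fusions, selected cells deep-sequenced, score is each peptide's frequency after selection divided by its frequency in the input.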
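Throughout, for phosphorylation enrichment, bacterial display: 11-residue human phosphosite peptides and single-mutation variants displayed on the E. coli surface, counted by deep sequencing, each peptide's frequency after selection divided by its frequency in the unselected input library; frequency after pTyr selection over input frequency; kinase dosed for 20-30% of maximal phosphorylation in three min.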

Sequence of FGFR3 (P22607 whole entry, looked up): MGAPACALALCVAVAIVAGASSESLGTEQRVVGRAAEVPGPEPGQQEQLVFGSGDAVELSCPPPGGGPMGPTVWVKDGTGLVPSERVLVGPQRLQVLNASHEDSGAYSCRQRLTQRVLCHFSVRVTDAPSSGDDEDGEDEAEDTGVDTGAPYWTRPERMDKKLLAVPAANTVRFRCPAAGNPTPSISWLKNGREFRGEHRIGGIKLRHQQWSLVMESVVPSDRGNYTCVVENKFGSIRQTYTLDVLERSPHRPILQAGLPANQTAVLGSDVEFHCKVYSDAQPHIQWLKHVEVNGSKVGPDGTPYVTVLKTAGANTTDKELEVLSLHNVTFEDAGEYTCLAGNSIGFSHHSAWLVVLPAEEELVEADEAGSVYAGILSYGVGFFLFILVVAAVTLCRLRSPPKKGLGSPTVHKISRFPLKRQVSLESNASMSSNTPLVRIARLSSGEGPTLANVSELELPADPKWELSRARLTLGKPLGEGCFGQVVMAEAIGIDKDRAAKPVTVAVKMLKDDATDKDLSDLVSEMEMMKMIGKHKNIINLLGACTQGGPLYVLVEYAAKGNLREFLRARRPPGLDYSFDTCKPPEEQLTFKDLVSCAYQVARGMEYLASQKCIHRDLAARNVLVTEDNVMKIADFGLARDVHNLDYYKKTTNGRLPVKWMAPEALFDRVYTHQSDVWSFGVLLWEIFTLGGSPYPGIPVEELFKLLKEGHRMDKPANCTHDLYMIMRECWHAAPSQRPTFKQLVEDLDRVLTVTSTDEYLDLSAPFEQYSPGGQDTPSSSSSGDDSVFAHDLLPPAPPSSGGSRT
Sequence of MERTK (Q12866 whole entry, looked up): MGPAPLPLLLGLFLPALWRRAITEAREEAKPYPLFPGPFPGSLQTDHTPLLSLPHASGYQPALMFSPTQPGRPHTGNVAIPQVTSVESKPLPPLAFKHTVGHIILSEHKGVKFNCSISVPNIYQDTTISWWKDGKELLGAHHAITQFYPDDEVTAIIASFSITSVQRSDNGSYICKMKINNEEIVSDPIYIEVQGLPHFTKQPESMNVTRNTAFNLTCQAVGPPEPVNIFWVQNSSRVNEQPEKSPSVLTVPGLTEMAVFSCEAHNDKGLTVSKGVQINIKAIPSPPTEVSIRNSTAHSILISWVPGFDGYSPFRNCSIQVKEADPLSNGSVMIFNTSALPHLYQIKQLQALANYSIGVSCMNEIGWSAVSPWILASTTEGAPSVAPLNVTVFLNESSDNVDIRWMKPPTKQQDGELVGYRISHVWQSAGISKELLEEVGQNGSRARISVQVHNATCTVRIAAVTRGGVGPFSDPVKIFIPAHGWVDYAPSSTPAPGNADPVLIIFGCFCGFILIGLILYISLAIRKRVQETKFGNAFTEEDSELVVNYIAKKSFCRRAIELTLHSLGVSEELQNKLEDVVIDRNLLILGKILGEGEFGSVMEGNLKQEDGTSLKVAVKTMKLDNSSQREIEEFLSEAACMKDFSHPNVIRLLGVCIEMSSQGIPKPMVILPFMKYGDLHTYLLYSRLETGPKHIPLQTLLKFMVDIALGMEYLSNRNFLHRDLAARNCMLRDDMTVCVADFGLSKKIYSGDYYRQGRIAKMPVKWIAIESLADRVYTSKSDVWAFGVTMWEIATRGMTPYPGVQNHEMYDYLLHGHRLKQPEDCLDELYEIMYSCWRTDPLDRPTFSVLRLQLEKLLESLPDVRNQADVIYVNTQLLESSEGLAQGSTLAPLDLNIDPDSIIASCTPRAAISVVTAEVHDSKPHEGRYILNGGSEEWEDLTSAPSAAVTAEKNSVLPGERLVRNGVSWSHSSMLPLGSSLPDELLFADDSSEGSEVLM
Sequence of EPHB2 (P29323 whole entry, looked up): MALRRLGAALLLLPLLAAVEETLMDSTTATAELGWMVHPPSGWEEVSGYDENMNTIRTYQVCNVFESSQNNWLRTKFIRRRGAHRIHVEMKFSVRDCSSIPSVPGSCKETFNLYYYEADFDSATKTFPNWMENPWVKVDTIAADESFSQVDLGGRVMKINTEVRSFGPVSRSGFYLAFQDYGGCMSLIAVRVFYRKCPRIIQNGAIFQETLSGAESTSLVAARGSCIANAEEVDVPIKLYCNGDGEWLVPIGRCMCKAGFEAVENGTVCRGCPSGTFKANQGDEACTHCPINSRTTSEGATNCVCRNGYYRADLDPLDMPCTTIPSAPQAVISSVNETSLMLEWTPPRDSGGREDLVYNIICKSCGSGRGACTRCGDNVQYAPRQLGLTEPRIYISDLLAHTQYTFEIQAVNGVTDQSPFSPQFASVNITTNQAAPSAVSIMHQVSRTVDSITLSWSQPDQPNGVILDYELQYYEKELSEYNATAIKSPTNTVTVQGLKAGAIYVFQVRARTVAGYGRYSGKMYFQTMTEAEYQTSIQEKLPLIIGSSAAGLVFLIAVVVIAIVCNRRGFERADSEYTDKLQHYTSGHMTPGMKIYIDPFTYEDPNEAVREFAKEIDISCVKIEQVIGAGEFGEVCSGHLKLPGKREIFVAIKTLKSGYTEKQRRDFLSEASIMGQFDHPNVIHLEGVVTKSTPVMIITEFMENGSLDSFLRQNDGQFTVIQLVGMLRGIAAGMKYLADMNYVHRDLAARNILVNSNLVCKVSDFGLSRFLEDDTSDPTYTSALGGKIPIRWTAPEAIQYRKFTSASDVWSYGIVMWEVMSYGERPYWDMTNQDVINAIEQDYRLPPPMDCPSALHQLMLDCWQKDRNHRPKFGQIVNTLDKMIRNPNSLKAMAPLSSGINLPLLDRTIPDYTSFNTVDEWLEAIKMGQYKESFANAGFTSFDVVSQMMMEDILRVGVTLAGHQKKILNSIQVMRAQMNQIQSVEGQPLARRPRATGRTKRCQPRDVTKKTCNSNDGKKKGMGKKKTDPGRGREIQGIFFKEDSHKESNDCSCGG
Sequence of Fes (P07332 whole entry, looked up): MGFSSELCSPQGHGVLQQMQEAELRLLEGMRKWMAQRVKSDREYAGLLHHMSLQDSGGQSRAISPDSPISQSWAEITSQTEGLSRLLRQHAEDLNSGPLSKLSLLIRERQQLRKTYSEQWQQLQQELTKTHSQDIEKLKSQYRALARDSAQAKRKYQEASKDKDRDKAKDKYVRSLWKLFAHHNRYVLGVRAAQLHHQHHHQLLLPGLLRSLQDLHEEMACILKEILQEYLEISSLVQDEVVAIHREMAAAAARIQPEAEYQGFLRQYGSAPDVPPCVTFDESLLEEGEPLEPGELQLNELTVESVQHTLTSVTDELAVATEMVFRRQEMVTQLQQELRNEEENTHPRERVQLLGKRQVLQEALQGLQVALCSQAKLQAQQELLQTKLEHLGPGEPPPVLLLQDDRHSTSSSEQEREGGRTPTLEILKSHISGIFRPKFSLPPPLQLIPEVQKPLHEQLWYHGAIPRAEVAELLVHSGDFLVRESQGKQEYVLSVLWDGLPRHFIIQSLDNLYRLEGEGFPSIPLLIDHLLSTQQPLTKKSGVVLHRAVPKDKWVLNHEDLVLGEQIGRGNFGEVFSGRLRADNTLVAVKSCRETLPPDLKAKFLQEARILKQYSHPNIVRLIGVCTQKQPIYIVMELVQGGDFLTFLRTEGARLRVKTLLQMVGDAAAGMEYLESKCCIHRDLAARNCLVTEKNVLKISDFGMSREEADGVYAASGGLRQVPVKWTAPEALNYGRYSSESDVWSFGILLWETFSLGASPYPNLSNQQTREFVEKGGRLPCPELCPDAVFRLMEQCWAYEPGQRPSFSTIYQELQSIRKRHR
Sequence of Fyn (P06241 whole entry, looked up): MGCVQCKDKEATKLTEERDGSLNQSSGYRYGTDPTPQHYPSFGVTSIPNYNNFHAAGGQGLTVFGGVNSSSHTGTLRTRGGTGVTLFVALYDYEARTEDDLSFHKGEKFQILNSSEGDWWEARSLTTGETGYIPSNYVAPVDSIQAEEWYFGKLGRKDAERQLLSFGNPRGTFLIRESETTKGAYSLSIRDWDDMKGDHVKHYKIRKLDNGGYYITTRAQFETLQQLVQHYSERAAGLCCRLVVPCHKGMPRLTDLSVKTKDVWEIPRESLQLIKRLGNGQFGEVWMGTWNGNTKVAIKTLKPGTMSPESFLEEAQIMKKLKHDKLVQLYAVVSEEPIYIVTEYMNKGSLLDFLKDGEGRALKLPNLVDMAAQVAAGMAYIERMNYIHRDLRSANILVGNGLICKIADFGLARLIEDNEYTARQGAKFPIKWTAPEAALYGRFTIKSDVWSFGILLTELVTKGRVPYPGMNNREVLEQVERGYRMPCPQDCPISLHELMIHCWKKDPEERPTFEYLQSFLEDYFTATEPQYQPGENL
Sequence of Hck (P08631 whole entry, looked up): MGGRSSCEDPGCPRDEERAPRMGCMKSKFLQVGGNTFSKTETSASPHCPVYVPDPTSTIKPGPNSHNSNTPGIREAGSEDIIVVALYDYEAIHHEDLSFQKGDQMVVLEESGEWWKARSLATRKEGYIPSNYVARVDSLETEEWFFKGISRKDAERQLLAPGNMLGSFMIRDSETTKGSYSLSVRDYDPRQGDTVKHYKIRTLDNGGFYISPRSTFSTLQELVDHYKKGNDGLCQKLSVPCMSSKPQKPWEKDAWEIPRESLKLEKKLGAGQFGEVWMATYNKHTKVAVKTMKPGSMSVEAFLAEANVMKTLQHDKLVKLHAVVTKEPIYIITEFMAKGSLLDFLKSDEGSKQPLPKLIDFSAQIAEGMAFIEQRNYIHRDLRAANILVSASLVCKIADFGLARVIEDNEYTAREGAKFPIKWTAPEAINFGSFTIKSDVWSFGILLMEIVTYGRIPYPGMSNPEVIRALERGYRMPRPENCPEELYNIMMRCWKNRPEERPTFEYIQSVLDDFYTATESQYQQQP
Sequence of Grb2 SH2 (P62993 whole entry, looked up): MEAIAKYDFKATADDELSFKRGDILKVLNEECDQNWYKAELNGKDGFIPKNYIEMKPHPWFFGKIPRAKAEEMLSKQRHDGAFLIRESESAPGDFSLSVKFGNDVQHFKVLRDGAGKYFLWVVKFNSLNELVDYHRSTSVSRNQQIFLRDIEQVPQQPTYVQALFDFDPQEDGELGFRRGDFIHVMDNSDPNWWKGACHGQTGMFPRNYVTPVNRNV

With GFSRHCEDGFP [CTNND1_Y217_Y217C_YF], the phosphorylation enrichment in data set [1] stood at 0.497; in data set [2], 0.724; in [3], 0.958; in data set [4], 0.697; in [5], 0.555; in [6] it was 0.471. Further, the phosphorylation enrichment in [7] worked out at 0.437; in data set [8], 0.441; in data set [9], 0.83; in data set [10], 0.402; in data set [11], 0.441; in data set [12], 0.767. Further, the phosphorylation enrichment in data set [13] worked out at 0.485. For the same sequence, the SH2 binding enrichment is 0.663 in [14], 0.774 in [15] and 0.479 in [16].
With GLRCGYGVLGG [KRTAP20-2_Y15_Y13C], the phosphorylation enrichment in [1] came out at 0.484; in data set [2], 0.825; in data set [3], 0.854; in data set [4] it was 0.612; in data set [5], 0.387; in data set [6], 0.381. The phosphorylation enrichment in data set [7] worked out at 0.466; in data set [8], 0.432; in [9], 0.617; in [10], 0.359; in data set [11], 0.73; in data set [12], 0.775. The phosphorylation enrichment in data set [13] came out at 0.484. Moreover, the figures for the SH2 binding enrichment in [14], in data set [15] and in [16] were 0.572, 0.806 and 0.52, respectively.
CTTIHYNFMCD [TP53_Y234_N239D_YF]: the phosphorylation enrichment in data set [1] turned out to be 0.545; in [2] it was 1.03; in data set [3] it was 1.11; in data set [4] it was 0.674; in [5], 0.499; in data set [6] it was 0.399. Moreover, the phosphorylation enrichment in data set [7] worked out at 0.442; in [8], 0.481; in data set [9], 0.768; in data set [10], 0.424; in data set [11], 0.538; in data set [12], 0.985. For the same sequence, the phosphorylation enrichment in [13] was 0.49. For the same sequence, the SH2 binding enrichment in data set [14] was 1.85; in data set [15], 1.74; in data set [16], 3.31.
As for ELCSEYHKSRK [SPINK5_Y440_R441H], the phosphorylation enrichment was 0.405 in data set [1]; 0.945 in data set [2]; 1.02 in [3]; 0.53 in data set [4]; 0.412 in data set [5]; 0.513 in data set [6]. Also, the phosphorylation enrichment in data set [7] amounted to 0.487; in [8], 0.442; in data set [9], 0.999; in data set [10], 0.532; in data set [11], 0.633; in data set [12] it was 0.73. In data set [13], the phosphorylation enrichment turned out to be 0.507. Moreover, the values for the SH2 binding enrichment in data set [14], in data set [15] and in data set [16] were 0.679, 0.824 and 0.484, respectively.
In the case of FPLELYERVRM [PRKCG_Y312_YF], the phosphorylation enrichment in data set [1] was found to be 1.94; in data set [2] it was 1.09; in data set [3], 1.28; in data set [4] it was 0.932; in [5], 0.982; in data set [6], 0.988. Besides, the phosphorylation enrichment in [7] was determined as 0.629; in data set [8], 1.24; in [9] it was 0.804; in data set [10], 0.444; in data set [11], 0.488; in [12], 1.39. For the same sequence, the phosphorylation enrichment in data set [13] was determined as 2.39. Further, the figures for the SH2 binding enrichment in data set [14], in data set [15] and in [16] were 0.722, 0.832 and 0.485, respectively.
For the sequence WRGMPYGGRGD [TGM1_Y312_R307W], the phosphorylation enrichment in data set [1] came out at 0.34; in data set [2], 0.482; in [3] it was 0.514; in [4] it was 0.486; in data set [5] it was 0.401; in data set [6], 0.388. Besides, the phosphorylation enrichment in data set [7] turned out to be 0.467; in data set [8], 0.39; in data set [9], 0.396; in [10], 0.363; in [11] it was 0.419; in [12], 0.548. Besides, the phosphorylation enrichment in [13] came to 0.31. For the same sequence, the SH2 binding enrichment was determined as 0.739 in [14], 1.19 in data set [15] and 0.709 in data set [16].
Regarding AFGEVYEGQVS [ALK_Y1131], the phosphorylation enrichment in [1] was 0.539; in data set [2] it was 0.846; in data set [3] it was 1.11; in data set [4] it was 0.667; in data set [5], 0.64; in data set [6], 0.695. The phosphorylation enrichment in data set [7] was 0.772; in [8], 0.937; in data set [9], 0.764; in [10], 0.442; in [11] it was 1.54; in data set [12] it was 0.974. Moreover, the phosphorylation enrichment in data set [13] was determined as 0.459. The SH2 binding enrichment in data set [14] was found to be 0.456; in data set [15] it was 0.914; in data set [16], 0.499.

Source of the values: the supplement of paper PMC10065799, “High-throughput profiling of sequence recognition by tyrosine kinases and SH2 domains using bacterial peptide display” (eLife, 2023).
